Key:
[1] = substrate: Cc1cc(=O)oc2cc(O[C@@H]3O[C@H](CO)[C@@H](O)[C@H](O)[C@H]3O)ccc12; assay: purified protein, by the assay type; type: biochemical, human; conditions: other: recombinant enzyme in the media, pH 5.9, 100 mM potassium phosphate, 0.15% Triton X-100, 0.125% sodium taurocholate, 37.0 °C
Protocol: For pH profile and inhibition studies, glucocerebrosidase activity was measured using 100 mM potassium phosphate buffer containing 0.15% Triton X-100, 2.5 μl of β-D-[1-^14 C] glucocerebroside (7.5 mg/ml in sodium taurocholate at 50 mg/ml), and the sample in the total volume of 200 ul. Preincubations with conduritol-B-epoxide were for 30 min at 37° C. […] Purification of recombinant glucocerebrosidase was also monitored using 4MUGP.

[2] = substrate: Cc1cc(=O)oc2cc(O[C@@H]3O[C@H](CO)[C@@H](O)[C@H](O)[C@H]3O)ccc12; assay: purified protein, by the assay type; conditions: other: recombinant enzyme in the cell pellet, pH 5.9, 100 mM potassium phosphate, 0.15% Triton X-100, 0.125% sodium taurocholate, 37.0 °C

B1: recombinant human glucocerebrosidase produced in baculovirus expression system (SF9 cells), culture media enzyme (Homo sapiens) (protein)
chain: ARPCIPKSFGYSSVVCVCNATYCDSFDPPTFPALGTFSRYESTRSGRRMELSMGPIQANHTGTGLLLTLQPEQKFQKVKGFGGAMTDAAALNILALSPPAQNLLLKSYFSEEGIGYNIIRVPMASCDFSIRTYTYADTPDDFQLHNFSLPEEDTKLKIPLIHRALQLAQRPVSLLASPWTSPTWLKTNGAVNGKGSLKGQPGDIYHQTWARYFVKFLDAYAEHKLQFWAVTAENEPSAGLLSGYPFQCLGFTPEHQRDFIARDLGPTLANSTHHNVRLLMLDDQRLLLPHWAKVVLTDPEAAKYVHGIAVHWYLDFLAPAKATLGETHRLFPNTMLFASEACVGSKFWEQSVRLGSWDRGMQYSHSIITNLLYHVVGWTDWNLALNPEGGPNWVRNFVDSPIIVDITKDTFYKQPMFYHLGHFSKFIPEGSQRVGLVASQKNDLDAVALMHPDGSAVVVVLNRSSKDVPLTIKDPAVGFLETISPGYSIHTYLWRRQ
notes: made in house; host or cells: Spodoptera frugiperda SF9 cells, recombinant baculovirus (AcNPV, pAc373/GC)
Km [1]: 3.3 mM

B2: recombinant human glucocerebrosidase produced in baculovirus expression system (SF9 cells), cell pellet enzyme (Homo sapiens) (protein)
chain: B1 chain
Km [2]: 3.6 mM
